# Read-outs that look alike come from different tables or passages of the source. Starred links: 1 amine or outer side, 2 acyl side, 3 side chain; linkers in the order of their positions; H or OH if unused. Non-standard residues stand in square brackets, D forms with d. Residues, ends and D or L forms follow the SMILES beside them. *: point of attachment. Paclitaxel(2'-OCO-DMEDA) = CC(=O)O[C@H]1C(=O)[C@@]2(C)[C@H]([C@H](OC(=O)c3ccccc3)[C@]3(O)C[C@H](OC(=O)[C@H](OC(=O)N(C)CCN(C)*)[C@@H](NC(=O)c4ccccc4)c4ccccc4)C(C)=C1C3(C)C)[C@]1(OC(C)=O)CO[C@@H]1C[C@@H]2O; Fmoc = O=C(OCC1c2ccccc2-c2ccccc21)*; PABC = O=C(OCc1ccc(N[*:1])cc1)[*:2]
# Legend:
# [1] = pH stability assay (buffers pH 5.4 and 7.4, UHPLC-HRMS); type: physicochemical; settings: 37 °C, average of two replicates
# Procedure: The pH stability assay was performed by incubating compounds 1–4 at 37 °C in buffers at pH 5.4 and 7.4 under gentle shaking conditions. More specifically, a solution of 20 mM AcONa and 1 mM EDTA in mQ water was used as a pH 5.4 buffer. A solution of PBS tablets in mQ water was used as a pH 7.4 buffer. A 1 mM stock solution of compounds 1–4 in dry DMSO was prepared and a […] solution was then obtained by dilution of 5.85 μL of the stock solution in 44.15 μL of dry DMSO. Then, 6 μL of the […] compound solution was diluted into 135 μL of the desired buffer, and the solution was incubated at 37 °C under gently shaking conditions. Samples aliquots (10 μL) were taken out at 15, 30 min and 1, 2, and 4 h and quenched with 10 μL of acetonitrile. The solutions were then injected in UHPLC-HRMS to monitor the stability of compounds 1–4 under different pH conditions. UHPLC-MS analyses were carried out as previously described for the Cathepsin B cleavage assay. The percentage of the residual compound was calculated as described above.
# The stability of compounds 1–4 and of the free drug PTX was evaluated in vitro by UHPLC-Orbitrap analysis incubating the samples at 37 °C in buffer solutions at pH 5.4, to simulate the pH inside the cancer cells, and at physiological pH 7.4. The same buffer of the Cathepsin B cleavage assay was used for the test at pH 5.4. The percentage of residual compounds 1–4 was measured over time by calculating the ratio between the areas of the peak of the full compound at the desired time point and at time zero, and the results were compared with the percentage of residual compounds 1–4 calculated during the Cathepsin B cleavage assay (Tables S6).
# [2] = Plasma stability assay, human plasma; type: in vitro ADME; settings: 37 °C; for remaining at 0.5 h, 1 μM / remaining at 2 h, 1 μM / remaining at 4 h, 1 μM: both sexes, read-out: Plasma stability (matrix: human) % remaining; for remaining at 0.5 h, 1 μM: 30 min; for remaining at 2 h, 1 μM: 120 min
# Procedure: (§1) The plasma stability assays were performed by Selvita SA (Krakow, Poland) following the protocol described in the Supporting Information. For the use of human plasma, consent was obtained from the subject or from the next of kin.
# 9. Plasma stability assays
# Protocol for full plasma assay: a stock solution of compounds 1-4 in DMSO was incubated in human (Anticoagulants: Na Heparin; Gender: Pooled; Cat. No: IPLANAH100ML; Lot: 37921; Supplier:
# Innovative Research) and rat (Strain: Sprague Dawley; Anticoagulants: Na Heparin; Cat. No:
# IGRTSDPLANAH100ML; Supplier: Innovative Research) plasma at a final concentration of 1 μM (final concentration of DMSO = 1 %). The samples were incubated at 37 °C with a shaking of 450 rpm. Aliquots of the samples were analyzed at time 0, 30 minutes, 2 and 4 hours by LC-MS/MS […]
# (§2) The areas of the peak of the compounds 1-4 in the LC chromatogram were used to evaluate stability profile. The percentage of residual compounds 1-4 was calculated as the ratio between the area of the peak of the analyte and the area of the internal standard.
# (§3) % residual compound = Area analyte ∙ 100
# (§4) Table S7. LC-MS data of the stability assays in plasma extracts of compound 1.
# (§5) Stability assays compound 1
# (§6) Time Plasma stability Plasma stability S9 stability S9 stability
# (§7) (min.) (matrix: rat) (matrix: human) Time (min.) (matrix: rat) (matrix: human) % remaining % remaining % remaining % remaining
# (§8) Table S8. LC-MS data of the stability assays in plasma extracts of compound 2.
# (§9) Stability assays compound 2
# [3] = Liver S9 fraction stability assay, rat; type: in vitro ADME; settings: 37 °C; for remaining at 0.5 h, 1 μM / remaining at 1.5 h, 1 μM: male, liver S9 fraction, read-out: S9 stability (matrix: rat) % remaining; for remaining at 0.5 h, 1 μM: 30 min
# Procedure: as §1
# 9. Plasma stability assays […]
# Protocol for S9 fraction: a stock solution of compounds 1-4 in DMSO was incubated in human (male, pooled, commercially obtained from Xeno-tech lot: 2310104) and rat (male, pooled, commercially obtained from Xeno-tech (lot: 2210317)) S9 fraction at a final concentration of 1 μM (final concentration of DMSO = 0.5 %). The samples were incubated at 37 °C with a shaking of 450 rpm.
# Aliquots of the samples were analyzed at time 0, 30 and 90 minutes by LC-MS/MS analysis.
# as §2, §3, §4, §5, §6, §7, §8, §9
# [4] = PBS pH 7.4, pH 7.4 PBS, 30 min, read-out: Stability pH 7.4, % residual compound
# [5] = acetate/EDTA buffer pH 5.4, pH 5.4 buffer, 120 min, read-out: Stability pH 5.4, % residual compound
# [6] = acetate/EDTA buffer pH 5.4, pH 5.4 buffer, 240 min (4 h), read-out: Stability pH 5.4, % residual compound
Compound,"remaining at 0.5 h, 4.98 µM [1, 4] [%]","Stability pH 5.4, % residual compound ([1]; pH 5.4 buffer, 30 min) [%]","Stability pH 5.4, % residual compound ([1]; pH 5.4 buffer, 240 min (4 h)) [%]","Stability pH 7.4, % residual compound ([1]; pH 7.4 PBS, 120 min) [%]","Stability pH 7.4, % residual compound ([1]; pH 7.4 PBS, 240 min) [%]","remaining at 0.5 h, 1 μM ([2]; human, plasma) [%]","remaining at 2 h, 1 μM ([2]; human, plasma) [%]","remaining at 4 h, 1 μM ([2]; human, plasma, 240 min (4 h)) [%]","remaining at 0.5 h, 1 μM ([3]; rat) [%]","remaining at 1.5 h, 1 μM ([3]; rat, 90 min (1.5 h)) [%]","remaining at 2 h, 4.98 µM [1, 5] [%]","remaining at 4 h, 4.98 µM [1, 6] [%]",also measured
"CC(=O)O[C@H]1C(=O)[C@@]2(C)[C@H]([C@H](OC(=O)c3ccccc3)[C@]3(O)C[C@H](OC(=O)[C@H](OC(=O)N(C)CCN(C)C(=O)OCc4ccc(NC(=O)CNC(=O)[C@H](CC(C)C)NC(=O)[C@@H]5CCCN5C(=O)CNC(=O)OCC5c6ccccc6-c6ccccc65)cc4)[C@@H](NC(=O)c4ccccc4)c4ccccc4)C(C)=C1C3(C)C)[C@]1(OC(C)=O)CO[C@@H]1C[C@@H]2O [Compound 1, Fmoc-GPLG-PABC-diamine-PTX] (Fmoc-GPLG[PABC]-{Paclitaxel(2'-OCO-DMEDA)})",115,93.60,93.78,97.00,113.04,98.9,117,112,88.8,94.5,–,–,"Stability pH 5.4, % residual compound ([1]; pH 5.4 buffer, 120 min): 93.87%; Plasma stability (matrix: human) % remaining ([2]; 1 μM, 240 min (4 h)): 100%"
"CC(=O)O[C@H]1C(=O)[C@@]2(C)[C@H]([C@H](OC(=O)c3ccccc3)[C@]3(O)C[C@H](OC(=O)[C@H](OC(=O)N(C)CCN(C)C(=O)OCc4ccc(NC(=O)CNC(=O)[C@H](CC(C)C)NC(=O)[C@H](Cc5ccccc5)NC(=O)CNC(=O)OCC5c6ccccc6-c6ccccc65)cc4)[C@@H](NC(=O)c4ccccc4)c4ccccc4)C(C)=C1C3(C)C)[C@]1(OC(C)=O)CO[C@@H]1C[C@@H]2O [Compound 2, Fmoc-GFLG-PABC-diamine-PTX] (Fmoc-GFLG[PABC]-{Paclitaxel(2'-OCO-DMEDA)})",90.6,92.49,–,–,91.99,102,104,93.9,72.8,61.8,85.4,86.8,"remaining at 2 h, 4.98 µM ([1]; PBS pH 7.4, pH 7.4 PBS, 120 min, read-out: Stability pH 7.4, % residual compound): 90.5%"
"CC(=O)O[C@H]1C(=O)[C@@]2(C)[C@H]([C@H](OC(=O)c3ccccc3)[C@]3(O)C[C@H](OC(=O)[C@H](OC(=O)N(C)CCN(C)C(=O)OCc4ccc(NC(=O)[C@H](CCCNC(N)=O)NC(=O)[C@@H](NC(=O)OCC5c6ccccc6-c6ccccc65)C(C)C)cc4)[C@@H](NC(=O)c4ccccc4)c4ccccc4)C(C)=C1C3(C)C)[C@]1(OC(C)=O)CO[C@@H]1C[C@@H]2O [Compound 3, Fmoc-VCit-PABC-diamine-PTX]",–,96.15,–,95.93,–,–,–,–,–,–,–,–,"remaining at 4 h, 4.98 µM ([1]; PBS pH 7.4, pH 7.4, pH 7.4 PBS, 240 min, read-out: Stability pH 7.4, % residual compound): 92%; remaining at 2 h, 4.98 µM ([1]; acetate/EDTA buffer pH 5.4, pH 5.4, pH 5.4 buffer, 120 min, read-out: Stability pH 5.4, % residual compound): 96.6%; remaining at 4 h, 4.98 µM ([1]; acetate/EDTA buffer pH 5.4, pH 5.4, pH 5.4 buffer, 240 min (4 h), read-out: Stability pH 5.4, % residual compound): 89.9%; Stability pH 7.4, % residual compound ([1]; pH 7.4 PBS, 30 min): 95.79%; remaining at 0.5 h, 1 μM [2]: 102%; remaining at 2 h, 1 μM [2]: 98.3%; remaining at 4 h, 1 μM ([2]; 240 min (4 h)): 77.1%; remaining at 0.5 h, 1 μM [3]: 86.5%; remaining at 1.5 h, 1 μM ([3]; 90 min (1.5 h)): 42.6%"
"CC(=O)O[C@H]1C(=O)[C@@]2(C)[C@H]([C@H](OC(=O)c3ccccc3)[C@]3(O)C[C@H](OC(=O)[C@H](OC(=O)N(C)CCN(C)C(=O)OCc4ccc(NC(=O)[C@H](C)NC(=O)[C@@H](NC(=O)OCC5c6ccccc6-c6ccccc65)C(C)C)cc4)[C@@H](NC(=O)c4ccccc4)c4ccccc4)C(C)=C1C3(C)C)[C@]1(OC(C)=O)CO[C@@H]1C[C@@H]2O [Compound 4, Fmoc-VA-PABC-diamine-PTX]",94.7,–,47.4,96.21,95.00,101,106,107,81.1,81.2,52.5,47.5,"remaining at 0.5 h, 4.98 µM ([1]; acetate/EDTA buffer pH 5.4, pH 5.4 buffer, 30 min, read-out: Stability pH 5.4, % residual compound): 90.8%; S9 stability (matrix: rat) % remaining ([3]; 1 μM, 90 min (1.5 h)): 81.17%"
